Experiments:
HeLa Kyoto [1] = assay: solubility in G1/S (NP-40 vs SDS abundance) (log2 ratio); higher = more soluble; conditions: cell cycle stage: G1/S
HeLa Kyoto [2] = assay: melting temperature (median over replicates), in situ; higher = more thermally stable
HeLa Kyoto [3] = assay: solubility change mitosis vs G1/S (difference of NP-40 vs SDS log2 ratios) (log2 ratio difference); higher = more soluble in mitosis
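Throughout, for melting temperature (median over replicates), in situ: HeLa Kyoto cells synchronized by double thymidine or nocodazole block, proteins quantified by TMT10plex mass spectrometry, three independent biological replicates.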
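Throughout, for solubility change mitosis vs G1/S (difference of NP-40 vs SDS log2 ratios): synchronized HeLa Kyoto cells (double thymidine block for G1/S, nocodazole release for mitosis), protein amounts in NP-40 versus SDS lysates quantified by mass spectrometry, three biological replicates.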
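Throughout, for solubility in G1/S (NP-40 vs SDS abundance): HeLa Kyoto cells arrested at G1/S by double thymidine block, proteins quantified by TMT10plex mass spectrometry in mild NP-40 versus SDS extracts, three biological replicates.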

Row | Sequence | solubility in G1/S (log2) (HeLa Kyoto [1]) | melting temperature (HeLa Kyoto [2]; cell cycle stage: G1/S) [°C] | melting temperature (HeLa Kyoto [2]; cell cycle stage: mitosis) [°C] | solubility change mitosis (log2) (HeLa Kyoto [3])
1 | MAFWCQRDSYAREFTTTVVSCCPAELQTEGSNGKKEVLSGFQVVLEDTVLFPEGGGQPDDRGTINDISVLRVTRRGEQADHFTQTPLDPGSQVLVRVDWERRFDHMQQHSGQHLITAVADHLFKLKTTSWELGRFRSAIELDTPSMTAEQVAAIEQSVNEKIRDRLPVNVRELSLDDPEVEQVSGRGLPDDHAGPIRVVNIEGVDSNMCCGTHVSNLSDLQVIKILGTEKGKKNRTNLIFLSGNRVLKWMERSHGTEKALTALLKCGAEDHVEAVKKLQNSTKILQKNNLNLLRDLAVHIAHSLRNSPDWGGVVILHRKEGDSEFMNIIANEIGSEETLLFLTVGDEKGGGLFLLAGPPASVETLGPRVAEVLEGKGAGKKGRFQGKATKMSRRMEAQALLQDYISTQSAKE [AARSD1] | 0.18 | 49.8 | 49.9 | -0.0164
2 | MAGQHLPVPRLEGVSREQFMQHLYPQRKPLVLEGIDLGPCTSKWTVDYLSQVGGKKEVKIHVAAVAQMDFISKNFVYRTLPFDQLVQRAAEEKHKEFFVSEDEKYYLRSLGEDPRKDVADIRKQFPLLKGDIKFPEFFKEEQFFSSVFRISSPGLQLWTHYDVMDNLLIQVTGKKRVVLFSPRDAQYLYLKGTKSEVLNIDNPDLAKYPLFSKARRYECSLEAGDVLFIPALWFHNVISEEFGVGVNIFWKHLPSECYDKTDTYGNKDPTAASRAAQILDRALKTLAELPEEYRDFYARRMVLHIQDKAYSKNSE [TYW5] | -0.0115 | 53.8 | 53.8 | -0.114
3 | MAICQFFLQGRCRFGDRCWNEHPGARGAGGGRQQPQQQPSGNNRRGWNTTSQRYSNVIQPSSFSKSTPWGGSRDQEKPYFSSFDSGASTNRKEGFGLSENPFASLSPDEQKDEKKLLEGIVKDMEVWESSGQWMFSVYSPVKKKPNISGFTDISPEELRLEYHNFLTSNNLQSYLNSVQRLINQWRNRVNELKSLNISTKVALLSDVKDGVNQAAPAFGFGSSQAATFMSPGFPVNNSSSDNAQNFSFKTNSGFAAASSGSPAGFGSSPAFGAAASTSSGISTSAPAFGFGKPEVTSAASFSFKSPAASSFGSPGFSGLPASLATGPVRAPVAPAFGGGSSVAGFGSPGSHSHTAFSKPSSDTFGNSSISTSLSASSSIIATDNVLFTPRDKLTVEELEQFQSKKFTLGKIPLKPPPLELLNV [NUPL2] | -0.304 | – | 51.7 | 0.326
4 | MALFPAFAGLSEAPDGGSSRKELDWLSNPSFCVGSITSLSQQTEAAPAHVSEGLPLTRSHLKSESSDESDTNKKLKQTSRKKKKEKKKKRKHQHHKKTKRKHGPSSSSRSETDTDSEKDKPSRGVGGSKKESEEPNQGNNAAADTGHRFVWLEDIQAVTGETFRTDKKPDPANWEYKSLYRGDIARYKRKGDSCLGINPKKQCISWEGTSTEKKHSRKQVERYFTKKSVGLMNIDGVAISSKTEPPSSEPISFIPVKDLEDAAPVTTWLNPLGIYDQSTTHWLQGQGPPEQESKQPDAQPDSESAALKAKVEEFNRRVRENPRDTQLWMAFVAFQDEVMKSPGLYAIEEGEQEKRKRSLKLILEKKLAILERAIESNQSSVDLKLAKLKLCTEFWEPSTLVKEWQKLIFLHPNNTALWQKYLLFCQSQFSTFSISKIHSLYGKCLSTLSAVKDGSILSHPALPGTEEAMFALFLQQCHFLRQAGHSEKAISLFQAMVDFTFFKPDSVKDLPTKGQVEFFEPFWDSGEPRAGEKGARGWKAWMHQQERGGWVVINPDEDDDEPEEDDQEIKDKTLPRWQIWLAAERSRDQRHWRPWRPDKTKKQTEEDCEDPERQVLFDDIGQSLIRLSSHDLQFQLVEAFLQFLGVPSGFTPPASCLYLAMDENSIFDNGLYDEKPLTFFNPLFSGASCVGRMDRLGYPRWTRGQNREGEEFIRNVFHLVMPLFSGKEKSQLCFSWLQYEIAKVIWCLHTKNKKRLKSQGKNCKKLAKNLLKEPENCNNFCLWKQYAHLEWLLGNTEDARKVFDTALGMAGSRELKDSDLCELSLLYAELEVELSPEVRRAATARAVHILTKLTESSPYGPYTGQVLAVHILKARKAYEHALQDCLGDSCVSNPAPTDSCSRLISLAKCFMLFQYLTIGIDAAVQIYEQVFAKLNSSVFPEGSGEGDSASSQSWTSVLEAITLMHTSLLRFHMKVSVYPLAPLREALSQALKLYPGNQVLWRSYVQIQNKSHSASKTRRFFDTITRSAKPLEPWLFAIEAEKLRKRLVETVQRLDGREIHATIPETGLMHRIQALFENAMRSDSGSQCPLLWRMYLNFLVSLGNKERSKGVFYKALQNCPWAKVLYLDAVEYFPDEMQEILDLMTEKELRVRLPLEELELLLED [NRDE2] | -0.208 | 48.5 | 49 | -0.031
5 | MANSANTNTVPKLYRSVIEDVINDVRDIFLDDGVDEQVLMELKTLWENKLMQSRAVDGFHSEEQQLLLQVQQQHQPQQQQHHHHHHHQQAQPQQTVPQQAQTQQVLIPASQQATAPQVIVPDSKLIQHMNASNMSAAATAATLALPAGVTPVQQILTNSGQLLQVVRAANGAQYIFQPQQSVVLQQQVIPQMQPGGVQAPVIQQVLAPLPGGISPQTGVIIQPQQILFTGNKTQVIPTTVAAPTPAQAQITATGQQQPQAQPAQTQAPLVLQVDGTGDTSSEEDEDEEEDYDDDEEEDKEKDGAEDGQVEEEPLNSEDDVSDEEGQELFDTENVVVCQYDKIHRSKNKWKFHLKDGIMNLNGRDYIFSKAIGDAEW [GTF2A1] | -0.719 | 56.2 | 57.2 | 0.475
6 | MAQETNHSQVPMLCSTGCGFYGNPRTNGMCSVCYKEHLQRQNSSNGRISPPATSVSSLSESLPVQCTDGSVPEAQSALDSTSSSMQPSPVSNQSLLSESVASSQLDSTSVDKAVPETEDVQASVSDTAQQPSEEQSKSLEKPKQKKNRCFMCRKKVGLTGFECRCGNVYCGVHRYSDVHNCSYNYKADAAEKIRKENPVVVGEKIQKI [ZFAND6] | 0.396 | 56.7 | – | -0.182
7 | MASTGSQASDIDEIFGFFNDGEPPTKKPRKLLPSLKTKKPRELVLVIGTGISAAVAPQVPALKSWKGLIQALLDAAIDFDLLEDEESKKFQKCLHEDKNLVHVAHDLIQKLSPRTSNVRSTFFKDCLYEVFDDLESKMEDSGKQLLQSVLHLMENGALVLTTNFDNLLELYAADQGKQLESLDLTDEKKVLEWAQEKRKLSVLHIHGVYTNPSGIVLHPAGYQNVLRNTEVMREIQKLYENKSFLFLGCGWTVDDTTFQALFLEAVKHKSDLEHFMLVRRGDVDEFKKLRENMLDKGIKVISYGDDYADLPEYFKRLTCEISTRGTSAGMVREGQLNGSSAAHSEIRGCST [FAM118B] | 0.418 | 49.3 | 50.5 | -0.123
8 | MAVSGFTLGTCILLLHISYVANYPNGKVTQSCHGMIPEHGHSPQSVPVHDIYVSQMTFRPGDQIEVTLSGHPFKGFLLEARNAEDLNGPPIGSFTLIDSEVSQLLTCEDIQGSAVSHRSASKKTEIKVYWNAPSSAPNHTQFLVTVVEKYKIYWVKIPGPIISQPNAFPFTTPKATVVPLPTLPPVSHLTKPFSASDCGNKKFCIRSPLNCDPEKEASCVFLSFTRDDQSVMVEMSGPSKGYLSFALSHDQWMGDDDAYLCIHEDQTVYIQPSHLTGRSHPVMDSRDTLEDMAWRLADGVMQCSFRRNITLPGVKNRFDLNTSYYIFLADGAANDGRIYKHSQQPLITYEKYDVTDSPKNIGGSHSVLLLKVHGALMFVAWMTTVSIGVLVARFFKPVWSKAFLLGEAAWFQVHRMLMFTTTVLTCIAFVMPFIYRGGWSRHAGYHPYLGCIVMTLAVLQPLLAVFRPPLHDPRRQMFNWTHWSMGTAARIIAVAAMFLGMDLPGLNLPDSWKTYAMTGFVAWHVGTEVVLEVHAYRLSRKVEILDDDRIQILQSFTAVETEGHAFKKAVLAIYVCGNVTFLIIFLSAINHL [FRRS1] | 0.0918 | 58.8 | – | 0.186
9 | MDLHMMNCELLATCSALGYLEGDTYHKEPDCLESVKDLIRYLRHEDETRDVRQQLGAAQILQSDLLPILTQHHQDKPLFDAVIRLMVNLTQPALLCFGNLPKEPSFRHHFLQVLTYLQAYKEAFASEKAFGVLSETLYELLQLGWEERQEEDNLLIERILLLVRNILHVPADLDQEKKIDDDASAHDQLLWAIHLSGLDDLLLFLASSSAEEQWSLHVLEIVSLMFRDQNPEQLAGVGQGRLAQERSADFAELEVLRQREMAEKKTRALQRGNRHSRFGGSYIVQGLKSIGERDLIFHKGLHNLRNYSSDLGKQPKKVPKRRQAARELSIQRRSALNVRLFLRDFCSEFLENCYNRLMGSVKDHLLREKAQQHDETYYMWALAFFMAFNRAASFRPGLVSETLSVRTFHFIEQNLTNYYEMMLTDRKEAASWARRMHLALKAYQELLATVNEMDISPDEAVRESSRIIKNNIFYVMEYRELFLALFRKFDERCQPRSFLRDLVETTHLFLKMLERFCRSRGNLVVQNKQKKRRKKKKKVLDQAIVSGNVPSSPEEVEAVWPALAEQLQCCAQNSELSMDSVVPFDAASEVPVEEQRAEAMVRIQDCLLAGQAPQALTLLRSAREVWPEGDVFGSQDISPEEEIQLLKQILSAPLPRQQGPEERGAEEEEEEEEEEEEELQVVQVSEKEFNFLDYLKRFACSTVVRAYVLLLRSYQQNSAHTNHCIVKMLHRLAHDLKMEALLFQLSVFCLFNRLLSDPAAGAYKELVTFAKYILGKFFALAAVNQKAFVELLFWKNTAVVREMTEGYGSLDDRSSSRRAPTWSPEEEAHLRELYLANKDVEGQDVVEAILAHLNTVPRTRKQIIHHLVQMGLADSVKDFQRKGTHIVLWTGDQELELQRLFEEFRDSDDVLGHIMKNITAKRSRARIVDKLLALGLVAERRELYKKRQKKLASSILPNGAESLKDFCQEDLEEEENLPEEDSEEEEEGGSEAEQVQGSLVLSNENLGQSLHQEGFSIPLLWLQNCLIRAADDREEDGCSQAVPLVPLTEENEEAMENEQFQQLLRKLGVRPPASGQETFWRIPAKLSPTQLRRAAASLSQPEEEQKLQPELQPKVPGEQGSDEEHCKEHRAQALRALLLAHKKKAGLASPEEEDAVGKEPLKAAPKKRQLLDSDEEQEEDEGRNRAPELGAPGIQKKKRYQIEDDEDD [TIMELESS] | -0.204 | 49.5 | 49.2 | -0.0762
10 | MDNLSSEEIQQRAHQITDESLESTRRILGLAIESQDAGIKTITMLDEQKEQLNRIEEGLDQINKDMRETEKTLTELNKCCGLCVCPCNRTKNFESGKAYKTTWGDGGENSPCNVVSKQPGPVTNGQLQQPTTGAASGGYIKRITNDAREDEMEENLTQVGSILGNLKDMALNIGNEIDAQNPQIKRITDKADTNRDRIDIANARAKKLIDS [SNAP23] | -0.00465 | 54.8 | 54 | 0.381
11 | MDTLDRVVKPKTKRAKRFLEKREPKLNENIKNAMLIKGGNANATVTKVLKDVYALKKPYGVLYKKKNITRPFEDQTSLEFFSKKSDCSLFMFGSHNKKRPNNLVIGRMYDYHVLDMIELGIENFVSLKDIKNSKCPEGTKPMLIFAGDDFDVTEDYRRLKSLLIDFFRGPTVSNIRLAGLEYVLHFTALNGKIYFRSYKLLLKKSGCRTPRIELEEMGPSLDLVLRRTHLASDDLYKLSMKMPKALKPKKKKNISHDTFGTTYGRIHMQKQDLSKLQTRKMKGLKKRPAERITEDHEKKSKRIKKN [RPF2] | -2.68 | – | 53.4 | 1.42
12 | MEADSPAGPGAPEPLAEGAAAEFSSLLRRIKGKLFTWNILKTIALGQMLSLCICGTAITSQYLAERYKVNTPMLQSFINYCLLFLIYTVMLAFRSGSDNLLVILKRKWWKYILLGLADVEANYVIVRAYQYTTLTSVQLLDCFGIPVLMALSWFILHARYRVIHFIAVAVCLLGVGTMVGADILAGREDNSGSDVLIGDILVLLGASLYAISNVCEEYIVKKLSRQEFLGMVGLFGTIISGIQLLIVEYKDIASIHWDWKIALLFVAFALCMFCLYSFMPLVIKVTSATSVNLGILTADLYSLFVGLFLFGYKFSGLYILSFTVIMVGFILYCSTPTRTAEPAESSVPPVTSIGIDNLGLKLEENLQETHSAVL [SLC35F2] | 0.147 | – | 56.1 | -0.182

— the supplement of paper PMC5998384
